Measured values: patent publication US6495144B2, “EBNA2 peptides and methods of using same” (Johns Hopkins University School of Medicine, priority 1996, dated 2002)
Where no end group is shown, it is not given here.

Assays:
EBNA2/CBF1 complex = molecular target: T1, EBNA2/CBF1 complex (Homo sapiens, UniProt Q06330); assay: EMSA competition of synthetic peptides for EBNA2/CBF1 complex formation; type: binding; conditions: for competition for EBNA2/CBF1 complex formation in EMSA, in words: 1.25-10 μg synthetic peptide
T1 construct: and heparin-agarose purified CBF1; endogenous in cells; host or cells: CBF1: heparin-agarose purified cell protein; EBNA2 252-425: in vitro translation
Description: FIG. 8 is an EMSA that examines the ability of synthetic peptides representing CR5 (PEP.CR5), CR6 (PEP.CR6), mutant CR6 (CR6WW323SR) (PEP.CR6WW>SR), CR7 (PEP.CR7), and a control, nonconserved region comprising amino acids 265-279 (CONTROL) to compete for EBNA2/CBF1 complex formation. Increasing amounts of peptide (i.e., 1.25, 2.5, 5.0 and 10 μg; black triangles) were added to the binding reactions containing the Cp CBF1 binding site probe, in vitro translated wild-type EBNA2 (i.e., corresponding to amino acids 252-425) and heparin-agarose purified CBF1.
CR6 could perform this function by generating a specific secondary or tertiary structure that facilitates interaction (e.g., a lock and key model of interaction). Alternately, CR6 could mediate direct protein-protein contacts, perhaps through the formation of a tryptophan bridge (Corina et al., Virology, 197, 391-396 (1993)). To further examine the proposed contributions of CR5, CR6, and CR7 in EBNA2 interaction, and to probe the role of CR6, five 10-15 amino acid peptides were synthesized. The peptides were tested for their ability to compete with a full length EBNA2 protein for complex formation with CBF1. The relative location of the peptides in the EBNA2 protein is illustrated in FIG. 2, and the exact position of the sequences can be determined from FIG. 5. The peptides are as follows: a control peptide comprised of amino acids 265-279 (i.e., Ser Thr Pro Asn Asp Pro Asp Ser Pro Glu Pro Xaa Ser Pro Thr [SEQ ID NO:8], wherein Xaa is Arg or Pro); a CR5 peptide comprised of amino acids 299-314 (i.e., Ala Pro Ala Gln Pro Pro Pro Gly Ile Ile Asn Asp Gln Gln Leu [SEQ ID NO:9]); a CR6 peptide comprised of amino acids 318-327 (i.e., Pro Ser Gly Pro Pro Trp Trp Pro Pro Ile [SEQ ID NO:6]); a CR6 WW323SR peptide comprised of amino acids 318-327 (i.e., Pro Ser Gly Pro Pro Ser Arg Pro Pro Ile [SEQ ID NO:10]); and a CR7 peptide comprised of amino acids 380-391 (i.e., Pro Ser Met Pro Glu Leu Ser Pro Val Leu Gly Leu [SEQ ID NO:11]).
Increasing amounts of the peptides were added to the binding reaction mixtures which were then analyzed using an EMSA (FIG. 8). […] It is known that EBNA2 can interact with CBF1 in solution (Grossman et al., supra; Henkel et al., supra). A typical binding reaction presumably contains both DNA-bound and non-DNA-bound EBNA2/CBF1 complexes.

[1] = molecular target: T2, EBNA2 interaction with CBF1 in solution (Homo sapiens, UniProt Q06330); assay: GST affinity assay with GST-EBNA2 (252-425) and 35S-labeled in vitro translated CBF1; type: binding
T2 construct: made in house; host or cells: CBF1: in vitro translation
T2 sequence (Q06330 whole entry): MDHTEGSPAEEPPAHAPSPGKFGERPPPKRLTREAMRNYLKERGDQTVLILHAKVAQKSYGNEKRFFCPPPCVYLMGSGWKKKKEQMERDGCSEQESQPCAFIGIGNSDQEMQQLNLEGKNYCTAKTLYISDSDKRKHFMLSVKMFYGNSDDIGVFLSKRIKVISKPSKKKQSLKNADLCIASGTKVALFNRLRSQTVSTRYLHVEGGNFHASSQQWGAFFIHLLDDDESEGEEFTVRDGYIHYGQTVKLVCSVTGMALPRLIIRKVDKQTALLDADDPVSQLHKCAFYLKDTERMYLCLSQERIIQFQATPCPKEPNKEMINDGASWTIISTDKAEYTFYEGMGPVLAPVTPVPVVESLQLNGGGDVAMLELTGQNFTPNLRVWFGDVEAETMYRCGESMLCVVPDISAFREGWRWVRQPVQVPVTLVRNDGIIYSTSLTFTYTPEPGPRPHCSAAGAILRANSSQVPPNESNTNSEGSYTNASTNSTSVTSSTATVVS

T1 sequence (Q06330 whole entry, one chain of several): as the sequence (Q06330 whole entry) above

## APAQPPPGIINDQQL [CR5 peptide]
EBNA2/CBF1 complex
  competition for EBNA2/CBF1 complex formation in EMSA, in words: Neither the control peptide nor the peptides spanning CR5 or CR7 had any effect on the formation of the EBNA2/CBF1 complex

## PSGPPSRPPI [CR6 WW323SR peptide]
EBNA2/CBF1 complex
  competition for EBNA2/CBF1 complex formation in EMSA, in words: abolished the ability of the peptide to compete with EBNA2 for interaction with CBF1
[1]
  competition for EBNA2 interaction with CBF1 in GST affinity assay, in words: abolished the ability of the peptide to compete with EBNA2 for interaction with CBF1

## PSGPPWWPPI [CR6 peptide]
EBNA2/CBF1 complex
  competition for EBNA2/CBF1 complex formation in EMSA, in words: regenerating the DNA-bound CBF1 complex to the levels seen in the absence of added EBNA2
EBNA2/CBF1 complex; 1.25-10 μg synthetic peptide added to binding reaction
  EBNA2/CBF1 complex eliminated by competition: 40%
[1]
  competition for EBNA2 interaction with CBF1 in GST affinity assay, in words: could compete for EBNA2 interaction with CBF1 in solution

## Pro Ser Met Pro Glu Leu Ser Pro Val Leu Gly Leu [CR7 peptide]
EBNA2/CBF1 complex
  competition for EBNA2/CBF1 complex formation in EMSA, in words: Neither the control peptide nor the peptides spanning CR5 or CR7 had any effect on the formation of the EBNA2/CBF1 complex

## Ser Thr Pro Asn Asp Pro Asp Ser Pro Glu Pro Xaa Ser Pro Thr [control peptide, reference compound]
EBNA2/CBF1 complex
  competition for EBNA2/CBF1 complex formation in EMSA, in words: Neither the control peptide nor the peptides spanning CR5 or CR7 had any effect on the formation of the EBNA2/CBF1 complex
